B1: wild-type N2 VHH antibody mutant G52aA [camelid] / TAMRA-labeled α-synuclein peptide [modified: tetramethylrhodamine (TAMRA) fluorophore, position not stated; tetramethylrhodamine (TAMRA) fluorophore, position not stated] [not stated] (parent)
chain 1: GQLVESGGGSVQAGGSLRLSCAASGIDSSSYCMGWFRQRPGKEREGVARINGLGGVKTAYADSVKDRFTISRDNAENTVYLQMNSLKPEDTAIYYCAAKFSPGYCGGSWSNFGYWGQGTQVTVSSH
chain 2: GYQDYEPEA

Variants of: B1
Assay: fluorescence polarization
Conditions: with TAMRA-labeled α-synuclein peptide [modified: tetramethylrhodamine (TAMRA) fluorophore, 400 nM VHH, 2 nM TAMRA-labeled α-synuclein peptide, parent: 1, read off a plot

First: chain 1 GQLVESGGGSVQAGGSLRLSCAASGIDSSSYCMGWFRQRPGKEREGVARINALGGVKTAYADSVKDRFTISRDNAENTVYLQMNSLKPEDTAIYYCAAKFSPGYCGGSWSNFGYWGQGTQVTVSSH
Second: chain 1 GQLVESGGGSVQAGGSLRLSCAASGIDSSSYCMGWFRQRPGKEREGVARINGLGAVKTAYADSVKDRFTISRDNAENTVYLQMNSLKPEDTAIYYCAAKFSPGYCGGSWSNFGYWGQGTQVTVSSH
The ratio to parent of the first is lower: -0.01 for the first, 0.015 for the second.

Going from chain 1 GQLVESGGGSVQAGGSLRLSCAASGIDSSSYCMGWFRQRPGKEREGVARINGLGGVKTAYADSVKDRFTISRDNAENTVYLQMNSLKPEDTAIYYCAAKFSPGACGGSWSNFGYWGQGTQVTVSSH to chain 1 GQLVESGGGSVQAGGSLRLSCAASGIDSSSYCMGWFRQRPGKEREGVARIAGLGGVKTAYADSVKDRFTISRDNAENTVYLQMNSLKPEDTAIYYCAAKFSPGYCGGSWSNFGYWGQGTQVTVSSH, the ratio to parent falls from 0.07 to 0.015.

Compared with chain 1 GQLVESGGGSVQAGGSLRLSCAASGIDSSSYCMGWFRQRPGKEREGVARANGLGGVKTAYADSVKDRFTISRDNAENTVYLQMNSLKPEDTAIYYCAAKFSPGYCGGSWSNFGYWGQGTQVTVSSH, chain 1 GQLVESGGGSVQAGGSLRLSCAASGIDSSSYCMGWFRQRPGKEREGVARINGLGGVATAYADSVKDRFTISRDNAENTVYLQMNSLKPEDTAIYYCAAKFSPGYCGGSWSNFGYWGQGTQVTVSSH is lower in ratio to parent: 0.41 for the first, 0.1 for the second.

In the case of chain 1 GQLVESGGGSVQAGGSLRLSCAASGIDSSSYCMGWFRQRPGKEREGVARINGLGGVKTAYADSVKDRFTISRDNAENTVYLQMNSLKPEDTAIYYCAAKFSPGYCGGSASNFGYWGQGTQVTVSSH, the ratio to parent is reported as 0.075.

Source: article PMC5591402
